# ± gives the standard deviation.
# Assay: protein stability index of a GFP-peptide fusion (GPS, HEK-293T) (PSI 1-6); higher = more stable
# [1] = treatment: DMSO, c terminus: a fixed tail appended
# [2] = treatment: MLN4924 1 uM, 8 h, c terminus: a fixed tail appended
# 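Also: 24-mer peptide tiles fused after GFP, lentivirally expressed, FACS-sorted into six equal bins by GFP/DsRed ratio, decoded by Illumina sequencing, PSI is the read-weighted mean bin number.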
sequence,measurement,setting,value
TAPLTELLHSRNEGVATYAAAVLF [CTNNB1],protein stability index,[1],2.25 ± 0.46
same,protein stability index,[2],2.36 ± 0.34
YMGKGSMTGLALKHMFERSFTQGE [MATN2],protein stability index,[1],2.37 ± 0.23
same,protein stability index,[2],3.07 ± 0.18
QALLRISLDKVQRSLGPRAPSLRR [SERTAD3],protein stability index,[1],2.68 ± 0.46
same,protein stability index,[2],2.62 ± 0.36
LAAPSLHVKEQLPCAGLNCQALDA [TLE6],protein stability index,[1],3.92 ± 0.25
same,protein stability index,[2],3.97 ± 0.28
SVSRPEGRSWPSAPDDSKAQAHRI [PDLIM4],protein stability index,[1],4.76 ± 0.21
same,protein stability index,[2],4.95 ± 0.18
GFRGSDDMELHRMSRMQSKEYPVV [TBX5],protein stability index,[1],3.93 ± 0.31
same,protein stability index,[2],3.98 ± 0.31
NFDDILNVCDDYDVTCNEFFFDRN [KCNG1],protein stability index,[1],3.4 ± 0.28
same,protein stability index,[2],3.27 ± 0.49
GIDLAVYETLKNAWLQHYAVNSAD [SLC25A25],protein stability index,[1],2.84 ± 0.44
same,protein stability index,[2],2.4 ± 0.33
DEKQQEANETLAEMEEELRYAPLS [VTI1B],protein stability index,[1],5.55 ± 0.15
same,protein stability index,[2],5.55 ± 0.2
LGYLLDKETLRLHPDIFLPSEICD [ZER1],protein stability index,[1],2.4 ± 0.21
same,protein stability index,[2],2.46 ± 0.17
IGVAGNHWDGYSKGVNRKLGRTGL [FUT8],protein stability index,[1],3.1 ± 0.16
same,protein stability index,[2],2.9 ± 0.18
MPSKLFAGLVHVKQCIVAHPVNPP [CRYL1],protein stability index,[1],2.37 ± 0.17
same,protein stability index,[2],2.46 ± 0.35
QALAQAIKEAKEQHPDMSVTKVVV [EPB41L3],protein stability index,[1],2.44 ± 0.34
same,protein stability index,[2],2.53 ± 0.27
IFIIQACRGNQHDVPVIPLDVVDN [CASP6],protein stability index,[1],2.71 ± 0.59
same,protein stability index,[2],2.49 ± 0.7
QHYTETALDEIKLLKCVRESDPSD [SRPK2],protein stability index,[1],4.82 ± 0.22
same,protein stability index,[2],4.92 ± 0.16
QTHSNTIVVSLQSKLASMSNDFKS [STX5],protein stability index,[1],2.8 ± 0.11
same,protein stability index,[2],2.92 ± 0.24
QNVVVKTLWKHQFAWPFYQPVDAI [BRD3],protein stability index,[1],2.31 ± 0.46
same,protein stability index,[2],2.29 ± 0.45
LVVPNKGYSSLDQSPDEKPLVALD [FAM219A],protein stability index,[1],4.45 ± 0.17
same,protein stability index,[2],4.42 ± 0.25
LAVCLAPSLFHLNTLKRENSSPRV [DLC1],protein stability index,[1],2.24 ± 0.24
same,protein stability index,[2],2.11 ± 0.2
LLARLRELEQQIWKERDEYITKVS [TRIM15],protein stability index,[1],1.98 ± 0.36
same,protein stability index,[2],1.96 ± 0.56
GREVELKPYIAAHFDVLPTEFTLG [PTPRD],protein stability index,[1],3.01 ± 0.37
same,protein stability index,[2],3
RMRYLNGLDPEPLPLMDLCRRSVR [SPSB1],protein stability index,[1],3.21 ± 0.27
same,protein stability index,[2],3.36 ± 0.1
RKISVNAKDEDQWTALHFAAQNGD [RIPK4],protein stability index,[1],4.19 ± 0.26
same,protein stability index,[2],4.59 ± 0.53
LRQRESKWLDMLNNWDKWMAKKHK [TBC1D10A],protein stability index,[1],2.9 ± 0.24
same,protein stability index,[2],3.2 ± 0.41
GKIDFPRHLDFHVKDLIKKLLVVD [PRKX],protein stability index,[1],2.44 ± 0.48
same,protein stability index,[2],1.97 ± 0.078
NSTSYSNYYRTWNVVVHDWLYYYA [SOAT1],protein stability index,[1],2.63 ± 0.52
same,protein stability index,[2],2.56 ± 0.55
LYRTLFSVINNGHNQKVHMHMVDL [PDS5B],protein stability index,[1],2.73 ± 0.56
same,protein stability index,[2],2.77 ± 0.77
LRGKSIKRAPGEETEKEEEEEDRE [NEUROD6],protein stability index,[1],5.66 ± 0.45
same,protein stability index,[2],5.67 ± 0.3
TPVSNSLLPEKAFSDIPSPYLRGT [GFOD1],protein stability index,[1],4.03 ± 0.28
same,protein stability index,[2],3.98 ± 0.1
MALPFFSLAEVRVGYQSQNISCFF [MYORG],protein stability index,[1],3.15 ± 1.1
same,protein stability index,[2],3.11 ± 0.89
LDQLLRHVMNPLETLSITNCRLSE [PRAME],protein stability index,[1],2.59 ± 0.62
same,protein stability index,[2],2.39 ± 0.49
AFASGSDDATCRLYDLRADREVAI [GNB5],protein stability index,[1],3.12 ± 0.22
same,protein stability index,[2],2.95 ± 0.11
SAVTSVRILQDEQYLMASDMAGKI [DCAF4],protein stability index,[1],3.33 ± 0.18
same,protein stability index,[2],3.29 ± 0.27
HWACKRNHGQVVSYLLKSGADKEI [ANKRD40],protein stability index,[1],2.59 ± 0.24
same,protein stability index,[2],2.66 ± 0.28
KVIYDFIEKTGGVEAVKNELRRQA [WASL],protein stability index,[1],2.13 ± 0.41
same,protein stability index,[2],2.28 ± 0.23
AERLFENQLVGPESIAHIGDVMFT [APMAP],protein stability index,[1],2.99 ± 0.38
same,protein stability index,[2],3.16 ± 0.31
AGFCMFVLSLVKKHYRLQFYMFAW [CDS1],protein stability index,[1],2.05 ± 0.36
same,protein stability index,[2],2.16 ± 0.38
MAGRPHPYDGNSSDPENWDRKLHS [BTBD10],protein stability index,[1],4.63 ± 0.086
same,protein stability index,[2],4.71 ± 0.088
VIAKPSELTSVTAWMLCKLLDKAG [ALDH8A1],protein stability index,[1],2.3 ± 0.2
same,protein stability index,[2],2.3 ± 0.23
KAGSSEWLAVDGLVSPSNNSKEDA [ATF4],protein stability index,[1],5.13 ± 0.19
same,protein stability index,[2],5.14 ± 0.25
SYATEADIISTVEFNHTGELLATG [PPP2R2B],protein stability index,[1],3.9 ± 0.43
same,protein stability index,[2],3.94 ± 0.32
HTHPSACQGQRLFEKLLQLTSQNI [PLD5],protein stability index,[1],2.21 ± 0.21
same,protein stability index,[2],1.84 ± 0.37
LPRRRGLRKKKTTKLRLERVKFRR [NEUROD6],protein stability index,[1],3.85 ± 0.27
same,protein stability index,[2],3.97 ± 0.29
FPNQKSEAAEPPKTPPSSCDSTNA [KMT5A],protein stability index,[1],5.52 ± 0.13
same,protein stability index,[2],5.53 ± 0.2
FAQADALKGTLVSTLKEVKPTVFI [ACSBG2],protein stability index,[1],2.4 ± 0.52
same,protein stability index,[2],3.04 ± 0.86
IVETLTVGCKGSKAGIEQEGYWLP [ZMYND11],protein stability index,[1],2.21 ± 0.18
same,protein stability index,[2],2.26 ± 0.14
TNMARIREIMEKFGKQPVSLPARR [CPXM2],protein stability index,[1],2.72 ± 0.1
same,protein stability index,[2],3.06 ± 0.31
MTSISLPSVMDPGAFETVLASAYT [ZBTB22],protein stability index,[1],2.57 ± 0.23
same,protein stability index,[2],2.72 ± 0.26
CKAFFKRSIQGHNDYICPATNQCT [ESR2],protein stability index,[1],2.15 ± 0.4
same,protein stability index,[2],2.45 ± 0.51
PCPSTTCCRACSVSFSTGAGGWSN [BET1L],protein stability index,[1],2.27 ± 0.91
same,protein stability index,[2],2.02 ± 0.47
GDETAHRIDSQFLIGDTLLVAPVL [MYORG],protein stability index,[1],2.94 ± 0.3
same,protein stability index,[2],2.85 ± 0.34
PVRKLYDDCSSTIVEDPQTKCEYM [ESRRG],protein stability index,[1],4.47 ± 0.21
same,protein stability index,[2],4.64 ± 0.19
ANPSIRDKEGYNSIHYAAAYGHRQ [ANKRD44],protein stability index,[1],3.52 ± 0.22
same,protein stability index,[2],3.6 ± 0.3
TLDSYEDKQKLKRTEIISRSWFPS [YJU2B],protein stability index,[1],3.14 ± 0.12
same,protein stability index,[2],3.24 ± 0.29
PQELLQSQDFVGEKLGSGEPSHSV [ATE1],protein stability index,[1],5.11 ± 0.17
same,protein stability index,[2],5.43 ± 0.064
IITIGYNVYHSYDLPWFRTLSWYF [CDS2],protein stability index,[1],3.08 ± 0.23
same,protein stability index,[2],3.2 ± 0.27
EGSLEWDILEVKRLLDHQDNILSL [WDR41],protein stability index,[1],2.42 ± 0.2
same,protein stability index,[2],2.53 ± 0.21
GLNSSWVELPMNSSNGNDNGNGKN [BNIP3L],protein stability index,[1],5.11 ± 0.42
same,protein stability index,[2],5.54 ± 0.2
VSIMYLVLVLAVQVHAWQLYYSKK [JAGN1],protein stability index,[1],2.98 ± 0.67
same,protein stability index,[2],3.27 ± 0.16
NAKAHCGATALHFAAEAGHIDIVK [FEM1B],protein stability index,[1],2.59 ± 0.36
same,protein stability index,[2],2.62 ± 0.17
LRKKKTTKLRLERVKFRRQEANAR [NEUROD6],protein stability index,[1],3.59 ± 0.34
same,protein stability index,[2],3.59 ± 0.27
GLAIHCMQVHKETIDAVPNAIPGR [ZNF207],protein stability index,[1],2.94 ± 0.18
same,protein stability index,[2],3.04 ± 0.16
ERAAAQARRELQAEREALQARLRD [ZBED3],protein stability index,[1],5.27 ± 0.21
same,protein stability index,[2],5.33 ± 0.22
MERARDRLHLRRTTEQHVPEVEVQ [SNURF],protein stability index,[1],4.77 ± 0.2
same,protein stability index,[2],4.72 ± 0.06
LDMDEGTLSFIVDGQYLGVAFRGL [SPSB4],protein stability index,[1],2.6 ± 0.46
same,protein stability index,[2],2.26 ± 0.59
GSRTPGRSELVEGCGWRCPEHGDR [TRIM14],protein stability index,[1],4.19 ± 0.3
same,protein stability index,[2],4.48 ± 0.074
TSSKVNATVPSNMMSVNGQAKTHT [ACBD3],protein stability index,[1],4.38 ± 0.13
same,protein stability index,[2],4.45 ± 0.082
TSSKPTALPSASSAYFPGQLPNS [SASS6],protein stability index,"treatment: DMSO, c terminus: native",4.42 ± 0.41
same,protein stability index,"treatment: MLN4924 1 uM, 8 h, c terminus: native",4.4 ± 0.26
ITESFTELARIVLLRHGMDRLWRP [RAB40B],protein stability index,[1],2.84 ± 0.1
same,protein stability index,[2],2.86 ± 0.25
WESRTGDQYSYSSLVMGSQTESAL [LCOR],protein stability index,[1],3.44 ± 0.27
same,protein stability index,[2],3.51 ± 0.46
KFYAVLKGTILYLQKDEYRPDKAL [PSD2],protein stability index,[1],2.83 ± 0.53
same,protein stability index,[2],2.58 ± 0.44
AAVKLADFGLAIEVQGDQQAWFGF [CAMK2B],protein stability index,[1],2.33 ± 0.75
same,protein stability index,[2],2.62 ± 0.77
ERLKANDNLKFSQEYESIDPGQQF [PTPRD],protein stability index,[1],4.21 ± 0.12
same,protein stability index,[2],4.22 ± 0.16
GATTLGDMIYVSGGFDGSRRHTSM [KLHL12],protein stability index,[1],2.88 ± 0.38
same,protein stability index,[2],3.02 ± 0.5
TREKAKFSDGEKCRREAFRRLGNG [PHTF1],protein stability index,[1],3.65 ± 0.17
same,protein stability index,[2],3.62 ± 0.39
HHAKDSEGVEIMLGVCASGLLIYR [EPB41L3],protein stability index,[1],2.12 ± 0.69
same,protein stability index,[2],2.14 ± 0.61
NREVATNSELVQSGKSEISELRRT [KRT17],protein stability index,[1],5 ± 0.22
same,protein stability index,[2],5.09 ± 0.24
ILTTSNITEKIDVAFVDRADIKQY [TRIP13],protein stability index,[1],2.88 ± 0.2
same,protein stability index,[2],3.02 ± 0.12
DPLPAAAVGAAAEAEADEEADPPA [SNX8],protein stability index,[1],5.59 ± 0.3
same,protein stability index,[2],5.71 ± 0.14
ELLWKLQTGDPTSPIKLSPTSPVY [MTUS2],protein stability index,[1],2.3 ± 0.32
same,protein stability index,[2],2.36 ± 0.16
ESDPSDPNKDMVVQLIDDFKISGM [SRPK2],protein stability index,[1],4.82 ± 0.3
same,protein stability index,[2],4.8 ± 0.26
QVSHDFLETRFKIQQLLEPQQYMA [FBXO34],protein stability index,[1],3.85 ± 0.49
same,protein stability index,[2],4.15 ± 0.29
PVIIAAVGTRQNEELPCTCPLCTS [RHOBTB3],protein stability index,[1],3.76 ± 0.37
same,protein stability index,[2],3.92 ± 0.35
EKQADFLDKQMSRDEHRARAMKIP [NFE2L1],protein stability index,[1],4.46 ± 0.16
same,protein stability index,[2],4.58 ± 0.12
MPSTPGFVGYNPYSHLAYNNYRLG [SMARCE1],protein stability index,[1],2.27 ± 0.099
same,protein stability index,[2],2.42 ± 0.23
TGYPYRYPALREKSKKYSDVEVPA [ADD1],protein stability index,[1],3.67 ± 0.081
same,protein stability index,[2],3.66 ± 0.044
FALQGLPLNCAPCPRRSEPVVQCQ [IRX6],protein stability index,[1],2.7 ± 0.16
same,protein stability index,[2],2.79 ± 0.28
HYDLLNLNGTKVAEGHKASFCLED [LOXL2],protein stability index,[1],4.12 ± 0.5
same,protein stability index,[2],4.26 ± 0.34
ARMLFSAVEWARNIPFFPDLQITD [NR2F2],protein stability index,[1],2.1 ± 0.21
same,protein stability index,[2],2.09 ± 0.28

# Source: the supplement of paper PMC10567573
